Measurements published in publication PMC9389836.

Key:
Assay in all cases: SEC
[1] = target: SARS-CoV-2 Nsp15 A93S (SARS-CoV-2)
[2] = target: SARS-CoV-2 Nsp15 D133Y (SARS-CoV-2)
[3] = target: SARS-CoV-2 Nsp15 G18E (SARS-CoV-2)
[4] = target: SARS-CoV-2 Nsp15 G18R (SARS-CoV-2)
[5] = target: SARS-CoV-2 Nsp15 H235Y (SARS-CoV-2)
[6] = target: SARS-CoV-2 Nsp15 K13N (SARS-CoV-2)
[7] = target: SARS-CoV-2 Nsp15 K13R (SARS-CoV-2)
[8] = target: SARS-CoV-2 Nsp15 K290N (SARS-CoV-2)
[9] = target: SARS-CoV-2 Nsp15 L163F (SARS-CoV-2)
[10] = target: SARS-CoV-2 Nsp15 P206S (SARS-CoV-2)
[11] = target: SARS-CoV-2 Nsp15 R207S (SARS-CoV-2)
[12] = target: SARS-CoV-2 Nsp15 T34I (SARS-CoV-2)
[13] = target: SARS-CoV-2 Nsp15 T113I (SARS-CoV-2)
[14] = target: SARS-CoV-2 Nsp15 T115A (SARS-CoV-2)
[15] = target: SARS-CoV-2 Nsp15 V128F (SARS-CoV-2)
[16] = target: SARS-CoV-2 Nsp15 V321M (SARS-CoV-2)
[17] = target: SARS-CoV-2 Nsp15 W333C (SARS-CoV-2)

## SARS-CoV-2 Nsp15 A93S (enzyme)
[1]
  hexamer/monomer ratio: 0.49

## SARS-CoV-2 Nsp15 D133Y (enzyme)
[2]
  hexamer/monomer ratio: 0.48

## SARS-CoV-2 Nsp15 G18E (enzyme)
[3]
  hexamer/monomer ratio: 0.56

## SARS-CoV-2 Nsp15 G18R (enzyme)
[4]
  hexamer/monomer ratio: 0.88

## SARS-CoV-2 Nsp15 H235Y (enzyme)
[5]
  hexamer/monomer ratio: 1.61

## SARS-CoV-2 Nsp15 K13N (enzyme)
[6]
  hexamer/monomer ratio: 0.63

## SARS-CoV-2 Nsp15 K13R (enzyme)
[7]
  hexamer/monomer ratio: 1.18

## SARS-CoV-2 Nsp15 K290N (enzyme)
[8]
  hexamer/monomer ratio: 2.12

## SARS-CoV-2 Nsp15 L163F (enzyme)
[9]
  hexamer/monomer ratio: 0.23

## SARS-CoV-2 Nsp15 P206S (enzyme)
[10]
  hexamer/monomer ratio: 2.49

## SARS-CoV-2 Nsp15 R207S (enzyme)
[11]
  hexamer/monomer ratio: 0.14

## SARS-CoV-2 Nsp15 T34I (enzyme)
[12]
  hexamer/monomer ratio: 1.01

## SARS-CoV-2 Nsp15 T113I (enzyme)
[13]
  hexamer/monomer ratio: 1.79

## SARS-CoV-2 Nsp15 T115A (enzyme)
[14]
  hexamer/monomer ratio: 0.55

## SARS-CoV-2 Nsp15 V128F (enzyme)
[15]
  hexamer/monomer ratio: 0.5

## SARS-CoV-2 Nsp15 V321M (enzyme)
[16]
  hexamer/monomer ratio: 0.65

## SARS-CoV-2 Nsp15 W333C (enzyme)
[17]
  hexamer/monomer ratio: 0.77
